Key:
[1] = biological target: recombinant HAdV-D49 fibre knob protein (human adenovirus type 49 (HAdV-D49)); assay: gel electrophoresis with Coomassie staining, with or without denaturing agent; 5 µg and 10 µg of recombinant knob, with or without treatment with a denaturing agent, stained with Coomassie; validation of knob trimerisation
[2] = biological target: recombinant HAdV-C5 fibre knob protein (human adenovirus type 5 (HAdV-C5))

Substance “recombinant HAdV-D49 fibre knob protein (domain or fragment)” has a stoichiometry N [1] of 3.
For “recombinant HAdV-C5 fibre knob protein (domain or fragment)”, the stoichiometry N [2] was 3.
